From patent publication US20220348635A1, “COMPOSITIONS AND METHODS FOR NEUROLOGICAL DISEASES” (Coda Biotherapeutics, Inc., priority 2019, published 2022) come the findings set out here.

What all share (assay type): cell-based
Assay [1] can be described thus: YFP quench plate reader assay, response to TC-6987. The settings on record: LX293T YFP reporter cells. Summed up:
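Anion-flux assay: channel opening admits iodide, quenching a co-expressed YFP reporter in LX293T cells transfected with engineered receptor mutants. Ligands were applied at several doses from 2× solutions in NaI-substituted ECS.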

A short description of assay [2]: Manual patch clamp, HEK cell line, Facinicline/RG3487. The settings on record: HEK293 cells and cultured rat DRG sensory neurons. Here is the method: FIG. 2A-FIG. 2B show the concentration-response curves of CR-11 (Chemogenic receptor-11, an engineered receptor comprising an amino acid sequence having the amino acid substitutions of Y115D and L131Q in SEQ ID NO: 33) expressed in HEK 293 cells to acetylcholine as well as to non-native ligands RG-3487 (SA-2, Synthetic Agonist-2). The responses were evaluated using manual patch clamp electrophysiology. Currents were normalized to unity for the maximal response. The continuous line through the data points is the best fit obtained with the Hill equation, and EC50s for each ligand are estimated from the concentration-response curves.
Using whole cell manual patch clamp electrophysiology in HEK293 cells and rat DRG neurons, the EC50 of the various engineered receptors disclosed herein to Ach and non-native ligands was measured. The rheobase shift was also measured in rat DRG neurons, which reflects the efficacy of the receptors. To calculate the rheobase, first, the amount of current that can produce an action potential was determined. Then the ligand was added, followed by a step wise increase in the current injected up to 700 pA. […] The EC50 was calculated using the Hill equation with peak current measurements from escalating doses of ligand.
A general note: Patch clamp records ionic current or voltage across a cell membrane.

Assay [3] can be described thus: Evoked action potentials in transduced rat DRG neurons, acetylcholine. To be noted: Acetylcholine at 3.0 mM, n=4. Here is the method:
Acetylcholine at 3.0 mM had no effect on evoked action potentials in transduced neurons (n=4) (FIG. 4B).

Assay [4] can be described thus: High throughput electrophysiology in HEK293T cells, AZD-0328. To be noted: HEK293T cells, held at −60 mV. The gist of the method: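 Engineered receptors transiently expressed in HEK293T cells, recorded 24 h post-transfection by automated whole-cell patch clamp at −60 mV, CsCl intracellular, pH 7.2 extracellular buffer. Progressive agonist doses applied for 1 s; peak currents fit to a 4-parameter Hill equation for EC50.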

B1: Y115D, L131Q in SEQ ID NO: 33: CR-11 (Chemogenic receptor-11): SEQ ID NO: 33 with substitutions Y115D and L131Q (protein)
chain: MRCSPGGVWLALAASLLHVSLQGEFQRKLYKELVKNYNPLERPVANDSQPLTVYFSLSLLQIMDVDEKNQVLTTNIWLQMSWTDHYLQWNVSEYPGVKTVRFPDGQIWKPDILLDNSADERFDATFHTNVQVNSSGHCQYLPPGIFKSSCPMDLKNFPMDVQTCKLKFGSWSYGGWSLDLQMQEADISGYIPNGEWDLVGIPGKRSERFYECCKEPYPDVTFTVTMRRRMGYYLIQMYIPSLLIVILSWISFWINMDAAPARVGLGITTVLTMTTQSSGSRASLPKVSYVKAIDIWMAVCLLFVFSALLEYAAVNFVSRQHKELLRFRRKRRHHKSPMLNLFQEDEAGEGRFNFSAYGMGPACLQAKDGISVKGANNSNTTNPPPAPSKSPEEMRKLFIQRAKKIDKISRIGFPMAFLIFNMFYWIIYKIVRREDVHNQ
modifications: synthetic sequence of chimeric LGIC
As for B1, in assay [1] (1 uM TC-6987), the “percent quench of YFP fluorescence, 1 uM tc6” value amounted to 38.83%. Also, the “percent quench of YFP fluorescence, 10 uM tc6” value in assay [1] (10 uM TC-6987) came out at 31.59%. Besides, in assay [1] (500 uM TC-6987), the “percent quench of YFP fluorescence, 500 uM tc6” value was 29.83%. Moreover, the “sensitivity to RG-3487 compared to wildtype nAchRa7 receptor” value in assay [2] is “more sensitive”. Besides, the “effect on evoked action potentials” value in assay [3] is “no effect”. For the same molecule, the “EC50 AZD-0328” value in assay [4] was “no activity”.
